Results: EP4714970A1 (Akeso Biopharma Co., Ltd., dated 2026)
Read-outs that look alike come from different tables or passages of the source.

How the values were obtained:
human LAG3-mG1Fc [1] = target: T1, human LAG3-mG1Fc (human; mouse, UniProt P18627 23-450, limits assumed); assay: ELISA, LAG3-mG1Fc coated 2 ug/mL
T1 construct: Made by Akeso; also called huLAG3-mG1Fc; HuLAG3-mG1Fc; not shown: mouse IgG1 Fc (mG1Fc); limits not readable
T1 sequence (looked up): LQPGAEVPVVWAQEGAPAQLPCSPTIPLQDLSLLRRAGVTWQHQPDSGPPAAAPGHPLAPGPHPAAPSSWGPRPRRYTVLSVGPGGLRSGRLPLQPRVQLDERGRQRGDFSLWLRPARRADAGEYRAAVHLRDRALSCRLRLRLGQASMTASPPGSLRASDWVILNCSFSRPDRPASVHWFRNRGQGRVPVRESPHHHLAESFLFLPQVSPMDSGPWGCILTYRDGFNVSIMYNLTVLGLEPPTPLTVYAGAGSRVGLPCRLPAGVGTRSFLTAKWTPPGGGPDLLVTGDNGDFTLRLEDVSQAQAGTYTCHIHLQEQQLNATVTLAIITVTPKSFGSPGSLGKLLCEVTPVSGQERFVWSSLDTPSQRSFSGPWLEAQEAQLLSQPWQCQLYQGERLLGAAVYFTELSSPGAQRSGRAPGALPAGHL

[2] = target: T2, human LAG3 on cell surface (293T-LAG3 cells; Jurkat-NFAT-PD1-LAG3 cells) (human, UniProt P18627 23-525); assay: flow cytometry on 293T-LAG3 cells
T2 construct: whole, on cells; also called huLAG3FL
T2 sequence (looked up): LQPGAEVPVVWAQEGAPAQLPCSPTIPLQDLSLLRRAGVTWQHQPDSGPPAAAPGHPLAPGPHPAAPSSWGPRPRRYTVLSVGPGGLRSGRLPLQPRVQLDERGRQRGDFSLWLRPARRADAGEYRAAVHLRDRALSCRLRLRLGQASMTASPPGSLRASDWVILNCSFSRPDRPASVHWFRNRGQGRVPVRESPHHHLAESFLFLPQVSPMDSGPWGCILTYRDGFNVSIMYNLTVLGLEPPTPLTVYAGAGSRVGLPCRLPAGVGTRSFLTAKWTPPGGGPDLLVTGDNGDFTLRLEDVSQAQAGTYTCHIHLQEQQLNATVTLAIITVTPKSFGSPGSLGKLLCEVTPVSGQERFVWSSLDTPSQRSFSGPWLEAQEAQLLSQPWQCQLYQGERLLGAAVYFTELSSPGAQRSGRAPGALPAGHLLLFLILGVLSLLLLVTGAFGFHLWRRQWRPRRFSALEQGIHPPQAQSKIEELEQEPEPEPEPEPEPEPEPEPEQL

human LAG3-mG1Fc [3] = target: T1, human LAG3-mG1Fc; assay: competitive flow cytometry, 3 nM LAG3-mG1Fc on Raji cells (competitor MHC II)
human LAG3-mG1Fc [4] = target: T1, human LAG3-mG1Fc; assay: as above; remark: listed apart in the source
[5] = target: T2, human LAG3 on cell surface (293T-LAG3 …); assay: flow cytometry on 293T-LAG3 cells; remark: listed apart in the source
human LAG3-mG1Fc [6] = target: T1, human LAG3-mG1Fc; assay: BLI (Fortebio), antigen on AMC sensor, antibody in solution, 30 C, 1:1 fit
[7] = target: T3, CD73 on U87-MG cell membrane surface (UniProt P21589 27-549, limits assumed); assay: flow cytometry on U87-MG cells
T3 construct: whole, on cells; also called CD73 endogenously expressed by U87-MG
T3 sequence (looked up): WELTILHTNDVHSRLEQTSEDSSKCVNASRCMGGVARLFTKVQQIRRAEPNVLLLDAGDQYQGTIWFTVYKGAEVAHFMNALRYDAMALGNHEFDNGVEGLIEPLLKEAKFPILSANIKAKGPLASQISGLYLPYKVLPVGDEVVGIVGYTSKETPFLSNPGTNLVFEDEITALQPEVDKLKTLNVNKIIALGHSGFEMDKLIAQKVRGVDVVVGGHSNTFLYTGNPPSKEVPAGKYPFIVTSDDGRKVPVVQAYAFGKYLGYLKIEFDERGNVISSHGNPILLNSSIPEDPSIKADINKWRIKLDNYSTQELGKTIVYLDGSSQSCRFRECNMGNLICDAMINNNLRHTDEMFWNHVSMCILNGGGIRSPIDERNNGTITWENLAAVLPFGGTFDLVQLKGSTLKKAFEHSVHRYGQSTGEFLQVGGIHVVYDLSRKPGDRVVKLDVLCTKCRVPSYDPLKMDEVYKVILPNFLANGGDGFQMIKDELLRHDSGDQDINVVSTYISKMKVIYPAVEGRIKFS

hNT5E(1-552)-His [8] = target: T4, hNT5E(1-552)-His (human, UniProt P21589 27-552); assay: ELISA, NT5E-His coated 1 ug/mL
T4 construct: also called NT5E-His; not shown: His tag
T4 sequence (looked up): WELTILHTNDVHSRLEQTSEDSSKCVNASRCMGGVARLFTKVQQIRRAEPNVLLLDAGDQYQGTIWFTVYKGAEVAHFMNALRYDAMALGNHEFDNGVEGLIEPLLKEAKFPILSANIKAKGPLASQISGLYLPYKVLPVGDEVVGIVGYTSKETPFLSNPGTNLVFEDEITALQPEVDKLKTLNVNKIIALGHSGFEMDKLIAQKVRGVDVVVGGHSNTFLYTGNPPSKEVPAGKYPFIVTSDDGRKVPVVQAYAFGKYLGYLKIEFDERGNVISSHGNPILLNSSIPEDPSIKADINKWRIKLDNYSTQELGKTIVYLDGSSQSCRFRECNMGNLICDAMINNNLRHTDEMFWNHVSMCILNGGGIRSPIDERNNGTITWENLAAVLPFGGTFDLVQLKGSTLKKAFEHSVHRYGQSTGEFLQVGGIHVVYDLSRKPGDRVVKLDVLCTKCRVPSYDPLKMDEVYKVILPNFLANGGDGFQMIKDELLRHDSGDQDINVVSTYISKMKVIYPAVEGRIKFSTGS

hNT5E(1-552)-His [9] = target: T4, hNT5E(1-552)-His; assay: ELISA, NT5E-His coated 1 ug/mL; remark: listed apart in the source
hNT5E(1-552)-His [10] = target: T4, hNT5E(1-552)-His; assay: BLI (Fortebio), antigen on HIS1K sensor, antibody in solution, 37 C, 1:1 fit
hNT5E(1-552)-His [11] = target: T4, hNT5E(1-552)-His; assay: ELISA, NT5E-His coated 1 ug/mL; remark: listed apart in the source
[12] = target: T3, CD73 on U87-MG cell membrane surface; assay: cell-based or functional assay

B1: H9L8(hG4WT) (antibody, human IgG4 S228P, kappa, V domains shown)
VH: QVQLQQWGAGLLKPSETLSLTCAVYGGSISDYYWNWIRQPPGKGLEWIGEINYRGTTNSNPSLKSRVTLSLDTSKNQFSLKLRSVTAADTAVYYCAFGYSDYEYDWFDPWGQGTLVTVSS
VL: EIVLTQSPATLSLSPGERATLSCRASQTISSYLAWYQQKPGQAPRLLIYDASNRATGIPARFSGSGSGTDFTLTISSLEPEDFAVYYCQQRSNWPITFGQGTNLEIKR
notes: Humanized anti-LAG3 IgG4 (wild type), kappa
Question: Which EC50 (human LAG3-mG1Fc [1]) does the source give for B1 here?
Answer: 0.123 nM

Question: What about the EC50 [2] of the same binder?
Answer: 0.501 nM

Question: What about the EC50 (human LAG3-mG1Fc [3]) of the same binder?
Answer: 1.46 nM

Question: And the EC50 (human LAG3-mG1Fc [4])?
Answer: 1.44 nM

Question: What about the EC50 [5] of the same binder?
Answer: 4.86 nM

Question: What about the Kd (human LAG3-mG1Fc [6]) of the same binder?
Answer: 0.3 nM

Question: And the “Maximum signal height of analyte (nm)” value (human LAG3-mG1Fc [6])?
Answer: 0.878 nm

Question: And the “S E (kdis)” value (human LAG3-mG1Fc [6])?
Answer: 2.94e-06 s⁻¹

Question: And the “S E (kon)” value (human LAG3-mG1Fc [6])?
Answer: 2330 M⁻¹ s⁻¹

Question: And the koff (human LAG3-mG1Fc [6])?
Answer: 0.000121 s⁻¹

Question: What about the kon (human LAG3-mG1Fc [6]) of the same binder?
Answer: 405000 M⁻¹ s⁻¹

B2: H9L9(hG4WT) (antibody, human IgG4 S228P, kappa, V domains shown)
VH: QVQLQQWGAGLLKPSETLSLTCAVYGGSISDYYWNWIRQPPGKGLEWIGEINYRGTTNSNPSLKSRVTLSLDTSKNQFSLKLRSVTAADTAVYYCAFGYSDYEYDWFDPWGQGTLVTVSS
VL: EIVLTQSPATLSLSPGERATLSCRASQTISSYLAWYQQKPGQAPRLLIYDGSNRATGIPARFSGSGSGTDFTLTISSLEPEDFAVYYCQQRSNWPLTFGQGTNLEIKR
notes: as for B1
Question: B2 was tested. Which EC50 (human LAG3-mG1Fc [1]) did it give?
Answer: 0.129 nM

Question: And the EC50 (human LAG3-mG1Fc [3])?
Answer: 1.48 nM

Question: What about the EC50 [5] of the same binder?
Answer: 4.53 nM

B3: H9L10(hG4WT) (antibody, human IgG4 S228P, kappa, V domains shown)
VH: QVQLQQWGAGLLKPSETLSLTCAVYGGSISDYYWNWIRQPPGKGLEWIGEINYRGTTNSNPSLKSRVTLSLDTSKNQFSLKLRSVTAADTAVYYCAFGYSDYEYDWFDPWGQGTLVTVSS
VL: EIVLTQSPATLSLSPGERATLSCRASQSISSYLAWYQQKPGQAPRLLIYDGSNRATGIPARFSGSGSGTDFTLTISSLEPEDFAVYYCQQRSNWPITFGQGTNLEIKR
notes: Humanized anti-LAG3 IgG4 (wild type), kappa; also called HIL10(hG4WT)
Question: Which results are given for B3?
Answer: EC50 (human LAG3-mG1Fc [1]): 0.14 nM; EC50 (human LAG3-mG1Fc [3]): 1.44 nM; EC50 [5]: 3.92 nM

B4: CPI-006 (antibody, V domains shown)
VH: QVQLVQSGAEVEKPGASVKVSCKASGYTFTSYWITWVRQAPGQGLEWMGDIYPGSGNTNYNEKFKTRVTITADKSTSTAYMELSSLRSEDTAVYYCAKEGGLTTEDYALDYWGQGTLVTVSS
VL: EIVLTQSPATLSLSPGERATLSCRASKNVSTSGYSYMHWYQQKPGQAPRLLIYLASNLESGIPPRFSGSGYGTDFTLTINNIESEDAAYYFCQHSRELPFTFGQGTKVEIKR
Question: How did the EC50 [7] turn out when B4 was run?
Answer: 8.47 nM

B5: 19F3H2L3(hG1DM) (antibody, human IgG1, kappa, L234A L235A, V domains shown)
VH: QVQLVQSGAEVVKPGASVKVSCKASGYSFTGYTMNWVRQAPGQNLEWIGLINPYNAGTSYNQKFQGKVTLTVDKSTSTAYMELSSLRSEDTAVYYCARSEYRYGGDYFDYWGQGTTLTVSS
VL: DIVMTQSPSSLAVSVGERVTISCKSSQSLLNSSNQKNYLAWYQQKPGQAPKLLIYFASTRESGVPDRFSGSGSGTDFTLTISSLQAEDVAVYYCQQHYDTPYTFGGGTKLEIKR
notes: Humanized anti-CD73 IgG1 with L234A/L235A
Question: How did the EC50 (hNT5E(1-552)-His [8]) turn out when B5 was run?
Answer: 0.011 nM

Question: And the EC50 (hNT5E(1-552)-His [9])?
Answer: 0.015 nM

Question: And the Kd (hNT5E(1-552)-His [10])?
Answer: 0.505 nM

Question: What about the “Maximum signal height of analyte (nm)” value (hNT5E(1-552)-His [10]) of the same binder?
Answer: 0.168 nm

Question: What about the “S E (kdis)” value (hNT5E(1-552)-His [10]) of the same binder?
Answer: 3.54e-06 s⁻¹

Question: What about the EC50 (hNT5E(1-552)-His [11]) of the same binder?
Answer: 0.011 nM

Question: What about the EC50 [7] of the same binder?
Answer: 6.06 nM

B6: MEDI9447 (antibody, V domains shown)
VH: EVQLLESGGGLVQPGGSLRLSCAASGFTFSSYAYSWVRQAPGKGLEWVSAISGSGGRTYYADSVKGRFTISRDNSKNTLYLQMNSLRAEDTAVYYCARLGYGRVDEWGRGTLVTVSS
VL: QSVLTQPPSASGTPGQRVTISCSGSLSNIGRNPVNWYQQLPGTAPKLLIYLDNLRLSGVPDRFSGSKSGTSASLAISGLQSEDEADYYCATWDDSHPGWTFGGGTKLTVL
Question: With B6 as the binder, how does the “EC50 (nM), inhibition of CD73 enzyme activity on U87-MG cells” value [12] read?
Answer: 0.152 nM

Question: And the “Maximum inhibition rate (%) of CD73 enzyme activity on U87-MG cells” value [12]?
Answer: 58.3%
